In publication PMC2857095 (The Journal of Biological Chemistry, 2010):

Molecular target: T1, DNA mismatch repair protein MutS, wild type (E. coli, UniProt P23909 1-853)
T1 sequence (looked up): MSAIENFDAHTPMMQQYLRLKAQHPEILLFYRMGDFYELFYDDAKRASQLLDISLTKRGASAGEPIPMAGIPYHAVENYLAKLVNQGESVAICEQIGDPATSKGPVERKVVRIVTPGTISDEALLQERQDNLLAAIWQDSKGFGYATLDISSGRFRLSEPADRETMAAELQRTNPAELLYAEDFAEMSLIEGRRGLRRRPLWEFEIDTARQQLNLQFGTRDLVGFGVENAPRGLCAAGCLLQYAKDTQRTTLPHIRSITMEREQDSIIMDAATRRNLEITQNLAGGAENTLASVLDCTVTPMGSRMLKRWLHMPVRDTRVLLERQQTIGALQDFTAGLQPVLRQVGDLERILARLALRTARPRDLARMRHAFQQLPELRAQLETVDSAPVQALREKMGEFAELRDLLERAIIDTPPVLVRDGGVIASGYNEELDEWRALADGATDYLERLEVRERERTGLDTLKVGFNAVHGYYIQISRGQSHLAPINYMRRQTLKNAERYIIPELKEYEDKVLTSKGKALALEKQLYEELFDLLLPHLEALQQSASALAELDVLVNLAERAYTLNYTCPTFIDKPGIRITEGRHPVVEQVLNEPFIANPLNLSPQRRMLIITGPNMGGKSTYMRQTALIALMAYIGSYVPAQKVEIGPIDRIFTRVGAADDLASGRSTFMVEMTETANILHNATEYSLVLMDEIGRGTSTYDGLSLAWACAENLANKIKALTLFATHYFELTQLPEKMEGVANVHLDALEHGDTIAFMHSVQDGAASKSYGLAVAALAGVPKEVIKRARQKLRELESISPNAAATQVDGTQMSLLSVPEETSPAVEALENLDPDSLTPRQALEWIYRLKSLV
Assay: SPR

B1: MutL (natural protein, UniProt P23367 1-615, looked up)
chain: MPIQVLPPQLANQIAAGEVVERPASVVKELVENSLDAGATRIDIDIERGGAKLIRIRDNGCGIKKDELALALARHATSKIASLDDLEAIISLGFRGEALASISSVSRLTLTSRTAEQQEAWQAYAEGRDMNVTVKPAAHPVGTTLEVLDLFYNTPARRKFLRTEKTEFNHIDEIIRRIALARFDVTINLSHNGKIVRQYRAVPEGGQKERRLGAICGTAFLEQALAIEWQHGDLTLRGWVADPNHTTPALAEIQYCYVNGRMMRDRLINHAIRQACEDKLGADQQPAFVLYLEIDPHQVDVNVHPAKHEVRFHQSRLVHDFIYQGVLSVLQQQLETPLPLDDEPQPAPRSIPENRVAAGRNHFAEPAAREPVAPRYTPAPASGSRPAAPWPNAQPGYQKQQGEVYRQLLQTPAPMQKLKAPEPQEPALAANSQSFGRVLTIVHSDCALLERDGNISLLSLPVAERWLRQAQLTPGEAPVCAQPLLIPLRLKVSAEEKSALEKAQSALAELGIDFQSDAQHVTIRAVPLPLRQQNLQILIPELIGYLAKQSVFEPGNIAQWIARNLMSEHAQWSMAQAITLLADVERLCPQLVKTPPGGLLQSVDLHPAIKALKDE
- binding result: binds
